The results in this text go back to publication PMC7997285.

This assay deals with human IRAK1 fused to the N-terminal Nanoluc fragment N67 (human) (UniProt P51617). The assay can be described thus: split reporter (BiFC, NanoBiT).
As to “CHIKV capsid protein fused to the C-terminal Nanoluc fragment C67 (from UniProt Q8JUX5) (natural protein)”, the fold Nanoluc activity over control reactions is over 10 fold. “RRV capsid protein fused to the C-terminal Nanoluc fragment C67 (natural protein)” displayed a fold Nanoluc activity over control reactions of over 10 fold.

In turn, “SINV capsid protein fused to the C-terminal Nanoluc fragment C67 (from UniProt P03316) (natural protein)” yielded a fold Nanoluc activity over control reactions of 12 fold.
